Measured values from patent publication US20240025959A1 (UNIVERSITY OF SOUTHERN CALIFORNIA, published 2024).

B1: Beclin 2 (human, full length) (other)
chain: MSSIRFLCQRCHQALKLSGSSESRSLPAAPAPTSGQAEPGDTREPGVTTREVTDAEEQQDGASSRSPPGDGSVSKGHANIFTLLGELGAMHMLSSIQKAAGDIFDIVSGQAVVDHPLCEECTDSLLEQLDIQLALTEADSQNYQRCLETGELATSEDEAAALRAELRDLELEEARLVQELEDVDRNNARAAADLQAAQAEAAELDQQERQHYRDYSALKRQQLELLDQLGNVENQLQYARVQRDRLKEINCFTATFEIWVEGPLGVINNFRLGRLPTVRVGWNEINTAWGQAALLLLTLANTIGLQFQRYRLIPCGNHSYLKSLTDDRTELPLFCYGGQDVFLNNKYDRAMVAFLDCMQQFKEEAEKGELGLSLPYGIQVETGLMEDVGGRGECYSIRTHLNTQELWTKALKFMLINFKWSLIWVASRYQK
notes: All tagged and endogenous human forms are kept under this one id; the form used is named under assay; also called BECN2; Flag-Beclin 2

How the values were obtained:
[1] = molecular target: T1, ATG13 (human, UniProt O75143 1-517, limits assumed); assay: co-IP and immunoblot in 293T cells, as summed up in the discussion
T1 sequence (looked up): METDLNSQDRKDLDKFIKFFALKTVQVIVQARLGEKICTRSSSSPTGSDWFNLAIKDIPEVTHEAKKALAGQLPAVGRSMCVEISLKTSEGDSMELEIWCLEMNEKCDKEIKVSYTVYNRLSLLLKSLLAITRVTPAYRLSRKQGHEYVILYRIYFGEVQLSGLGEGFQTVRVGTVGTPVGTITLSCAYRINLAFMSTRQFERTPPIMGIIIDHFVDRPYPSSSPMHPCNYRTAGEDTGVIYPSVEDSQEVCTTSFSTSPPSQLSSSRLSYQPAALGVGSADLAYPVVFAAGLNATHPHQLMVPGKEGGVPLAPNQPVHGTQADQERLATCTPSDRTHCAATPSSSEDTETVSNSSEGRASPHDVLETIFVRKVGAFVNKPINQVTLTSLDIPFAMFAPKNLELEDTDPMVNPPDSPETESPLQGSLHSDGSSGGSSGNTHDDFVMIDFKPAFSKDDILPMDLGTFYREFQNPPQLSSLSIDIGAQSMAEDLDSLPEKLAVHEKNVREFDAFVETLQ

[2] = molecular target: T2, FIP200 (human, UniProt Q8TDY2 1-1594); assay: as above
T2 construct: also called Flag-FIP200; hFIP200
T2 sequence (Q8TDY2 whole entry): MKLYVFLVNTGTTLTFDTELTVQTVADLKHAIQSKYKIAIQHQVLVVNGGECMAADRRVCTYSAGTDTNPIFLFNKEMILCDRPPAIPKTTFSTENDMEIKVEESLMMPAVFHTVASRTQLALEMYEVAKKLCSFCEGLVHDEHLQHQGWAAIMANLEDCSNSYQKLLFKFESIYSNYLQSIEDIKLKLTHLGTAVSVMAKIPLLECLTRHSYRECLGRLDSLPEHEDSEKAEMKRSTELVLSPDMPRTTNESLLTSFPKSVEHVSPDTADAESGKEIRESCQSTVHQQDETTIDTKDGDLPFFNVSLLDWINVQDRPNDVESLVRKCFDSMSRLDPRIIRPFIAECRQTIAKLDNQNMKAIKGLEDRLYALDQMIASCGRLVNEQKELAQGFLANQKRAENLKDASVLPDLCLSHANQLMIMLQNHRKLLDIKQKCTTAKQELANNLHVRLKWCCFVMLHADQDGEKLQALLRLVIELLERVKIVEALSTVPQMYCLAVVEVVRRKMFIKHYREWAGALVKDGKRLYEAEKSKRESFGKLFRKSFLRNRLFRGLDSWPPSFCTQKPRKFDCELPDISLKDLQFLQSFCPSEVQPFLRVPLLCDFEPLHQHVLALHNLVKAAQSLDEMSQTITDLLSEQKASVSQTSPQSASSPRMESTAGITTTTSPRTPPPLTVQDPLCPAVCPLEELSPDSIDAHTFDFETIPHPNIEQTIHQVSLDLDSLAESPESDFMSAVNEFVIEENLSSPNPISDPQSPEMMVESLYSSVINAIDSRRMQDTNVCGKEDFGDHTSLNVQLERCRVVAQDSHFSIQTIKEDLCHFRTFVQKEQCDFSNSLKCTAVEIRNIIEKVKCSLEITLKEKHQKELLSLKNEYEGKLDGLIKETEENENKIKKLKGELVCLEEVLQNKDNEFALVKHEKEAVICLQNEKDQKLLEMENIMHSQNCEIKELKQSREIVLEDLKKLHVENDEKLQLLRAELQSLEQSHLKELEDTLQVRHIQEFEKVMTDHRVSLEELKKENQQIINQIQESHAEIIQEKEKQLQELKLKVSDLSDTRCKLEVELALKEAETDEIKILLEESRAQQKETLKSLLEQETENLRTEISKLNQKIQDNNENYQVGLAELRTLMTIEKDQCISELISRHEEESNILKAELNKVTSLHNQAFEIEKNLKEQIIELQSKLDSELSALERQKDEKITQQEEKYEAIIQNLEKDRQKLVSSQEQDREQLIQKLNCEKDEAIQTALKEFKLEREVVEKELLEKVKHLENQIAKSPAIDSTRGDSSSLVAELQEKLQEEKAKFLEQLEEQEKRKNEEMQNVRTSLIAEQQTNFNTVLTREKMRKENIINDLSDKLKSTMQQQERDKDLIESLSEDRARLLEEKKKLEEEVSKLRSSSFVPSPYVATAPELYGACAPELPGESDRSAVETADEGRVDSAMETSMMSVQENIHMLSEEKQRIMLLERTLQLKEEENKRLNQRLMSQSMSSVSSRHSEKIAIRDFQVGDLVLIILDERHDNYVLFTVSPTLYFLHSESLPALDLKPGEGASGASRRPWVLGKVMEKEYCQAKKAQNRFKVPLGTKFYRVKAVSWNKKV

[3] = molecular target: T3, WIPI1 (human, UniProt Q5MNZ9 1-446); assay: endogenous co-IP; 293T cell lysates immunoprecipitated with antibodies against each protein, immunoblot (FIG. 9D)
T3 sequence (looked up): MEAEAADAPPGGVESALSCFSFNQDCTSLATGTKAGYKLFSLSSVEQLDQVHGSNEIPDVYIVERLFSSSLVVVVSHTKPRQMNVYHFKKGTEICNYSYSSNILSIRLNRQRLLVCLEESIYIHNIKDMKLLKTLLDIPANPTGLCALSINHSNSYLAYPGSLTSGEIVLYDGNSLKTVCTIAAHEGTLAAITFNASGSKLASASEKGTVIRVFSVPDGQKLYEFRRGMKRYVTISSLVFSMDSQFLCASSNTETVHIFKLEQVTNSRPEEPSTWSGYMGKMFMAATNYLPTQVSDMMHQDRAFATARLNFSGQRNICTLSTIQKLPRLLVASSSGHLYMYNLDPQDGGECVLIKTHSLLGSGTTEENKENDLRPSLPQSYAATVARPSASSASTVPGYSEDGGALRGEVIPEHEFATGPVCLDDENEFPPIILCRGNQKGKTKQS

[4] = molecular target: ERK5 (UniProt Q13164 1-816); assay: co-IP with anti-Flag beads and immunoblot; 293T cells co-transfected with Flag-Beclin 2 and an HA-tagged plasmid (FIG. 8A)
Chain of ERK5 (Q13164 whole entry): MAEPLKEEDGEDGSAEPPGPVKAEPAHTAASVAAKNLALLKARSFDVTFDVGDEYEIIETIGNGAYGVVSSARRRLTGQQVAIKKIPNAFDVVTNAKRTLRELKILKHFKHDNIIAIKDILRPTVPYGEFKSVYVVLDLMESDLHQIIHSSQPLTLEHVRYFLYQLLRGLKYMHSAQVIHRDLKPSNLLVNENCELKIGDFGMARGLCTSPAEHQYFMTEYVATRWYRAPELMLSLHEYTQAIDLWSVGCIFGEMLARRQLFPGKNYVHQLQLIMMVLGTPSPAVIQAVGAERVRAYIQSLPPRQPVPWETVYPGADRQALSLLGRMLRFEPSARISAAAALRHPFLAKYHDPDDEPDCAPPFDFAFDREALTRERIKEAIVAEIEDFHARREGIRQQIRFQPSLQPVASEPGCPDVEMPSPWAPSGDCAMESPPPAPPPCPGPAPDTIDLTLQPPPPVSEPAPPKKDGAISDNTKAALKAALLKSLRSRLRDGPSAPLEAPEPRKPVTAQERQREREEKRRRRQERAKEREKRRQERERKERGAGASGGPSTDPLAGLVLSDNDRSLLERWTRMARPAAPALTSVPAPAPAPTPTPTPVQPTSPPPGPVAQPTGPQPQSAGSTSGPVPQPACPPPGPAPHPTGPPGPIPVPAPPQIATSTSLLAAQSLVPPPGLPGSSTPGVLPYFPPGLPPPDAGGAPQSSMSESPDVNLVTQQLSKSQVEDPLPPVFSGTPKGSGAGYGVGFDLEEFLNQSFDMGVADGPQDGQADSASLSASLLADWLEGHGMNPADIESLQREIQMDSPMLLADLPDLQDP

[5] = molecular target: T4, ATG9A (human) (human, UniProt Q7Z3C6 1-839); assay: co-IP with anti-Flag beads and immunoblot; 293T cells co-transfected with HA-Beclin 2 and a Flag-tagged plasmid (FIG. 10A)
T4 construct: Transmembrane protein; co-IP from RIPA lysates; Tagged and endogenous human forms kept under one id; also called Flag-ATG9A; HA-ATG9A
T4 sequence (looked up): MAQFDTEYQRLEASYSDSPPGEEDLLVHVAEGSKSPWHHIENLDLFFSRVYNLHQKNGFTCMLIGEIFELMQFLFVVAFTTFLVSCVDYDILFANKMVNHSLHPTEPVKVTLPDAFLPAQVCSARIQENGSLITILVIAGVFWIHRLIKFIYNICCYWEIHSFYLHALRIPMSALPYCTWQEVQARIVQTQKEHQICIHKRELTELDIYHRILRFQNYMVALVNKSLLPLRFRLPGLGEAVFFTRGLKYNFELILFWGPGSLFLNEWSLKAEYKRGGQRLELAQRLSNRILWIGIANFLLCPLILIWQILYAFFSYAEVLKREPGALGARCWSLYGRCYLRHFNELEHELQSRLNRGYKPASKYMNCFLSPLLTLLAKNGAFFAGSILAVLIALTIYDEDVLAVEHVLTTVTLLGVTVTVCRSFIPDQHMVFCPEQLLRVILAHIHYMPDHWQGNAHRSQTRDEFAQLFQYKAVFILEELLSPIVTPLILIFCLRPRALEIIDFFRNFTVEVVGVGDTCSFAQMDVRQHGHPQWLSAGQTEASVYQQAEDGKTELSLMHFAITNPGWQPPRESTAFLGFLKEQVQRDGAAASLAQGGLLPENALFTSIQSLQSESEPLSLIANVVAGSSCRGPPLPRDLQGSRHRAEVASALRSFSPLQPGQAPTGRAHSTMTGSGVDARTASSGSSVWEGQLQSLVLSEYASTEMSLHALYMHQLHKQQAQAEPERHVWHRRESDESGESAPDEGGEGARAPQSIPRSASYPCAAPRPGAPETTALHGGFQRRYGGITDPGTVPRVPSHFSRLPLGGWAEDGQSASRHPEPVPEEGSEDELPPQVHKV

[6] = molecular target: T5, ULK1 (human, UniProt O75385 1-1050); assay: co-IP with anti-Flag beads and immunoblot; 293T cells co-transfected with Flag-Beclin 2 and HA-ULK1, complete or starvation medium (FIG. 10B)
T5 construct: also called HA-ULK1
T5 sequence (looked up): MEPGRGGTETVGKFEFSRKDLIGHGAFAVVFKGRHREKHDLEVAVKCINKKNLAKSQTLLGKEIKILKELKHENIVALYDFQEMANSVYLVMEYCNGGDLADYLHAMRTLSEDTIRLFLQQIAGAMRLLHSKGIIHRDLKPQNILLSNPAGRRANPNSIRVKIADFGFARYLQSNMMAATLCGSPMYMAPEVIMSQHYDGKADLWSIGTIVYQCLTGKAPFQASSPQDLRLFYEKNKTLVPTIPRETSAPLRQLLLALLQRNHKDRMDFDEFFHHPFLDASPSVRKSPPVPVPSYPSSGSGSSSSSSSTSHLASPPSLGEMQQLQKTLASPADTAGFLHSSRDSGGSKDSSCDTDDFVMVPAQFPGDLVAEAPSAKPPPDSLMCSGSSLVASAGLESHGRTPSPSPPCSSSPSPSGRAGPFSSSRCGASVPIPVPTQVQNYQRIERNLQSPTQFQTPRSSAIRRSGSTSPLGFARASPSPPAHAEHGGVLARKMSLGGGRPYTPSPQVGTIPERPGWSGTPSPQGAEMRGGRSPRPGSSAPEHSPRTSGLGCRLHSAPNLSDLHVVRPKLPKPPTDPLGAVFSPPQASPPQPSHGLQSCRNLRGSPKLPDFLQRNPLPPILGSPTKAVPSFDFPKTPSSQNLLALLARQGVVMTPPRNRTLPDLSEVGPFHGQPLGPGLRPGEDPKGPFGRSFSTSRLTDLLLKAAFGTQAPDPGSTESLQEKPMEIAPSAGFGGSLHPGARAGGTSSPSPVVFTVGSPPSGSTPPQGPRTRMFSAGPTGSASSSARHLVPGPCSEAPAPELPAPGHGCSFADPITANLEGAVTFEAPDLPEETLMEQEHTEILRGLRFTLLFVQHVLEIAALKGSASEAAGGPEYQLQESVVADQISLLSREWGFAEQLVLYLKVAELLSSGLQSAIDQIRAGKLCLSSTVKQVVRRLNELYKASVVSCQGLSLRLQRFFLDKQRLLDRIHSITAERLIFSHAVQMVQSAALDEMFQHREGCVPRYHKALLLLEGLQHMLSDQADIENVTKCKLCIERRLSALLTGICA

[7] = molecular target: B1; assay: co-IP with anti-Flag beads and immunoblot; 293T cells co-transfected with Flag-Beclin 2 and an HA-tagged plasmid (FIG. 8A)

**Q.** Does B1 bind [1]?
**A.** no binding

**Q.** Does B1 bind [2]?
**A.** no binding

**Q.** Does B1 bind [3]?
**A.** binds

**Q.** Does B1 bind [4]?
**A.** no binding

**Q.** Does B1 bind [5]?
**A.** binds

**Q.** Does B1 bind [6]?
**A.** binds

B2: ERK1 (enzyme, UniProt P27361 1-379, looked up)
chain: MAAAAAQGGGGGEPRRTEGVGPGVPGEVEMVKGQPFDVGPRYTQLQYIGEGAYGMVSSAYDHVRKTRVAIKKISPFEHQTYCQRTLREIQILLRFRHENVIGIRDILRASTLEAMRDVYIVQDLMETDLYKLLKSQQLSNDHICYFLYQILRGLKYIHSANVLHRDLKPSNLLINTTCDLKICDFGLARIADPEHDHTGFLTEYVATRWYRAPEIMLNSKGYTKSIDIWSVGCILAEMLSNRPIFPGKHYLDQLNHILGILGSPSQEDLNCIINMKARNYLQSLPSKTKVAWAKLFPKSDSKALDLLDRMLTFNPNKRITVEEALAHPYLEQYYDPTDEPVAEEPFTFAMELDDLPKERLKELIFQETARFQPGVLEAP
notes: also called Mapk3
**Q.** Does B2 bind [7]?
**A.** no binding
